# Measured values reported in US11499162B2, “Plants having increased tolerance to herbicides” (BASF SE, priority 2016, dated 2022).
# Positions count from the first letter of the chain named. Names and notes keep the numbering of the source.
# B1: S247P: mutated TriA variant of SEQ ID NO: 2 (protein)
# chain: MQTLSIQHGTLVTMDQYRRVLGDSWVHVQDGRIVALGVHAESVPPPADRVIDARGKVVLPGFINAHTHVNQILLRGGPSHGRQLYDWLFNVLYPGQKAMRPEDVAVAVRLYCAEAVRSGITTINDNADSAIYPGNIEAAMAVYGEVGVRVVYARMFFDRMDGRIQGYVDALKARSPQVELCSIMEETAVAKDRITALSDQYHGTAGGRISVWPAPAITPAVTVEGMRWAQAFARDRAVMWTLHMAEPDHDERLHWMSPAEYMECYGLLDERLQVAHCVYFDRKDVRLLHRHNVKVASQVVSNAYLGSGVAPVPEMVERGMAVGIGTDDGNCNDSVNMIGDMKFMAHIHRAVHRDADVLTPEKILEMATIDGARSLGMDHEIGSIETGKRADLILLDLRHPQTTPHHHLAATIVFQAYGNEVDTVLIDGNVVMENRRLSFLPPERELAFLEEAQSRATAILQRANMVANPAWRSL
# modifications: Pseudomonas
# B2: D248N: mutated TriA variant of SEQ ID NO: 2 (protein)
# chain: B1 chain with P247S, D248N
# modifications: Pseudomonas
# B3: E251D: mutated TriA variant of SEQ ID NO: 2 (protein)
# chain: B1 chain with P247S, E251D
# modifications: Pseudomonas
# B4: H249V: mutated TriA variant of SEQ ID NO: 2 (protein)
# chain: B1 chain with P247S, H249V
# modifications: Pseudomonas
# B5: H249N: mutated TriA variant of SEQ ID NO: 2 (protein)
# chain: B1 chain with P247S, H249N
# modifications: Pseudomonas
# B6: H249I: mutated TriA variant of SEQ ID NO: 2 (protein)
# chain: B1 chain with P247S, H249I
# modifications: Pseudomonas
# B7: N70V: mutated TriA variant of SEQ ID NO: 2 (protein)
# chain: B1 chain with N70V, P247S
# modifications: Pseudomonas
# B8: D250N: mutated TriA variant of SEQ ID NO: 2 (protein)
# chain: B1 chain with P247S, D250N
# modifications: Pseudomonas
# B9: D248G: mutated TriA variant of SEQ ID NO: 2 (protein)
# chain: B1 chain with P247S, D248G
# modifications: Pseudomonas
# B10: D248S: mutated TriA variant of SEQ ID NO: 2 (protein)
# chain: B1 chain with P247S, D248S
# modifications: Pseudomonas
# B11: D250E: mutated TriA variant of SEQ ID NO: 2 (protein)
# chain: B1 chain with P247S, D250E
# modifications: Pseudomonas
# Assay type: biochemical
# Details: pH 7.2
# How it was run: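 Expression: BL21(DE3) Gold, pET24d N-His, pGro7, 0.1 mM IPTG, 25° C, 20 h. Reaction: 25 mM Na phosphate pH 7.2, substrate 1 nM to 10 nM, 30° C. Analysis: UPLC-HR-MS; % degradation vs empty vector.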
Molecule,"Degradation in % of 6-cyclopentyl-N4-(2,3,4,5,6-pentafluorophenyl)-1,3,5-triazine-2,4-diamine [%]",Degradation in % of Melamine [%]
B1,0,3
B2,4,11
B3,35,100
B4,0,100
B5,0,1
B6,1,100
B7,4,0
B8,1,3
B9,0,7
B10,3,20
B11,2,3
